Here are results for one molecule from US20220242946A1 (Johns Hopkins, published 2022).

One may read the EC50 (read off the curve) as the concentration giving half of the maximal effect. A lower EC50 (read off the curve) goes with higher potency in that assay.

Read-outs that look alike come from different tables or passages of the source.

Assay [1] has as its target T1, biotinylated human IL-2 immobilized on streptavidin-coated tips (human, UniProt P60568 21-153, biotinylated (site not stated)).
T1 construct: The construct used for biotinylated hIL-2 is not described; probably as the soluble hIL-2 (residues 1-133) with tags; also called biotinylated hIL-2; immobilized hIL-2; not shown: tags of the biotinylated hIL-2 are not described (the biotin acceptor peptide is told only for hIL-2Ra and hIL-2Rb)
Kind of assay: bio-layer interferometry equilibrium titration, biotinylated hIL-2 on streptavidin tips. The procedure:
(§1) Less than 5 signal units (nm) of receptor was immobilized to minimize mass transfer effects. […] Surface regeneration for all interactions was conducted using a 15 second exposure to 0.1 M glycine pH 3.0. Experiments were carried out in PB SA (phosphate-buffered saline, pH 7.3 plus 0.1% bovine serum albumin (BSA, Thermo Fisher Scientific)) at 25° C. Data was visualized and processed using the Octet® Data Analysis software version 7.1 (Molecular Devices). Equilibrium titration curve fitting and KD value determination was implemented using GraphPad Prism, assuming all binding interactions to be first order.
(Biolayer interferometry detects binding as a change in optical thickness at a sensor tip.)

Assay [2] deals with human IL-2 (residues 1-133) displayed on the surface of yeast (human, UniProt P60568 21-153). Description: titration of soluble antibody on yeast-displayed hIL-2, flow cytometry; apparent bivalent affinity. The procedure: After a final wash, cells were analyzed for antibody binding using a CytoFLEX flow cytometer (Beckman Coulter). Background-subtracted and normalized binding curves were fitted to a first-order binding model and equilibrium dissociation constant (KD) values were determined using GraphPad Prism.
After a 3-day incubation, secreted protein was captured from the supernatant with protein G resin, eluted with 0.1 M glycine pH 2.0, and analyzed via SDS-PAGE. […] Immunocytokine expression was scaled up in HEK 293F cells and the secreted protein was purified via protein G affinity chromatography followed by size-exclusion chromatography.
(In flow cytometry, cells or beads pass a laser one at a time.)

Assay [3] addresses T1, biotinylated human IL-2 immobilized on …. Kind of assay: bio-layer interferometry equilibrium titration, biotinylated hIL-2 on streptavidin tips. The procedure:
as §1
This is another data set of the same source.

T1 sequence (P60568 21-153): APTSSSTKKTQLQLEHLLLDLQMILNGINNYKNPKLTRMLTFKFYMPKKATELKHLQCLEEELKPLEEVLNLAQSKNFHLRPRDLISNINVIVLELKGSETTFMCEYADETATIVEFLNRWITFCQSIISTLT
human IL-2 (residues 1-133) displayed on the surface of yeast, sequence (P60568 21-153 limits assumed): as the sequence (P60568 21-153) above

B1: recombinant F5111 antibody (human IgG1 lambda) (antibody, V domains shown)
VH: QLQLQESGPGLVKPSQTLSLTCTVSGGSISSGGYYWSWIRQHPGKGLEWIGYIYYSGSTYYNPSLKSRVTISVDTSKNQFSLKLSSVTAADTAVYYCARTPTVTGDWFDPWGRGTLVTVSS
VL: SNFMLTQPHSVSESPGKTVTISCTRSSGSIASNYVQWYQQRPGSSPTTVIYEDNQRPSGVPDRFSGSIDSSSNSASLTISGLKTEDEADYYCQSYDSSNVVFGGGTKLTVLG
notes: Expressed in HEK 293F cells; also called F5111 Ab; monoclonal antibody F5111
Turning to B1, the results for the half-maximal effective concentration (EC50 (read off the curve)) in assay [1] and in assay [3] were roughly 3 nM and roughly 0.6 nM, respectively. Also, in assay [2], the Kd is 0.42 nM.
